Legend:
[1] = biological target: tau oligomer secreted into the culture supernatant by human tauopathy iNs (FTDP-17 patient, MAPT intron 10+14 C>T) (human) (UniProt P10636); assay: cell-based or functional assay
[2] = biological target: tau oligomer secreted into the culture supernatant by human tauopathy iNs (FTDP-17 patient, MAPT intron 10+14 C>T) (human) (UniProt P10636); assay: immunodepletion of human tauopathy iN culture supernatant with antibody-bound beads; tau oligomer measured by ELISA

Sequence of tau oligometric complex 1 antibody (TOC1 antibody) (heavy): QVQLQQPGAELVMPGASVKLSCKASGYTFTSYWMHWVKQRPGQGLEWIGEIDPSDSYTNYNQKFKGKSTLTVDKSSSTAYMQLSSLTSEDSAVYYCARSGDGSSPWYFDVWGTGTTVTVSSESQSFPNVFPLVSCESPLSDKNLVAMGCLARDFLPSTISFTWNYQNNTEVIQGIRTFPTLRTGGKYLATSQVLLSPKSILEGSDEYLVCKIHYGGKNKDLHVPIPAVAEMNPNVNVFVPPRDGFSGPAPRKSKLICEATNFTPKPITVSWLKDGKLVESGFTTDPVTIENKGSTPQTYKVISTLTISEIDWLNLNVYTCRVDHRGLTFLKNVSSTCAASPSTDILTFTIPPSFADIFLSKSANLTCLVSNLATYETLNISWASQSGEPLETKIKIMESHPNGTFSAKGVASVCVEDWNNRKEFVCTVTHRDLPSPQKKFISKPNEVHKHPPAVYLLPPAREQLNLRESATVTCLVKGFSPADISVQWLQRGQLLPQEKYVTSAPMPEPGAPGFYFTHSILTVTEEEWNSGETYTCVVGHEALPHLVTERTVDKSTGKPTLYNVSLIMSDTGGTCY
Sequence of tau oligometric complex 1 antibody (TOC1 antibody) (light): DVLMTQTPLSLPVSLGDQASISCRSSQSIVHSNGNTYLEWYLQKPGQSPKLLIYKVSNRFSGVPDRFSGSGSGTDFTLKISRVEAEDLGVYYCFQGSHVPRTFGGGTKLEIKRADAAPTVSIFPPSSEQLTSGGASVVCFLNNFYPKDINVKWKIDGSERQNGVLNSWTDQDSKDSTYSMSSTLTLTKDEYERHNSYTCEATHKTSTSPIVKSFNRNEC
Sequence of tau oligomer secreted into the culture supernatant by human tauopathy iNs (FTDP-17 patient, MAPT intron 10+14 C>T) (human) (P10636 other isoform, or with tags, fused parts or gaps limits assumed): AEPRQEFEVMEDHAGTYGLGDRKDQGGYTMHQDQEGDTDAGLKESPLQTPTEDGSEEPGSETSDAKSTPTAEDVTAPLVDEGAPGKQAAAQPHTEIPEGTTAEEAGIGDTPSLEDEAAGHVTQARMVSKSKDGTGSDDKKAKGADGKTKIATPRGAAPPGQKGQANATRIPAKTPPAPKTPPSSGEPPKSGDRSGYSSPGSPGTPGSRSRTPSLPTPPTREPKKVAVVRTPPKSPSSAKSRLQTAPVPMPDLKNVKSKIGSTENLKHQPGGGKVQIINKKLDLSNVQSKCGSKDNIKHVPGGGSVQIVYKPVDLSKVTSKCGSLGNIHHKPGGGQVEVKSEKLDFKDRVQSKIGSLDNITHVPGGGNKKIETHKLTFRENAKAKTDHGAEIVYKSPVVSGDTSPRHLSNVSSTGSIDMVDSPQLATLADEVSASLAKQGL

With “tau oligometric complex 1 antibody (TOC1 antibody)” as the substance, how does the survival rate of human normal iNs two days after adding the immunodepleted culture supernatant [1] read?
Its survival rate of human normal iNs two days after adding the immunodepleted culture supernatant is 130%.

And the amount of tau oligomer left in the culture supernatant after immunodepletion [2]?
Its amount of tau oligomer left in the culture supernatant after immunodepletion is 27%.

From patent US20180209962A1, “SCREENING METHOD USING INDUCED NEURONS” (KYOTO UNIVERSITY, priority 2014, published 2018)
